What is called Kd is a measure of binding affinity in units of concentration. Lower therefore signals higher affinity. One may read the koff as the first-order rate constant of dissociation. In general, kon refers to a measure of how fast the partners come together.

Experiment [1] addresses EGFR (human) (UniProt P00533). The experiment can be described thus: flow cytometry on HeLa cells; histogram shifted to between 10^2 and 10^3; 'No antibody' panel shows 5.56.
In experiment [2] the target is EGFR (human) (UniProt P00533). The experiment can be described thus: flow cytometry on U2OS cells; histogram shifted to between 10^1 and 10^2, partly overlapping the control; 'No antibody' panel shows 6.17. (A flow cytometer gives signals particle by particle.)
The target in experiment [3] is EGFR (human) (UniProt P00533). The experiment can be described thus: flow cytometry on PCI-30 cells; main peak between 10^2 and 10^3 with a tail toward the control; 'No antibody' panel shows 13.1.
Another experiment deals with antigen CD3 (Biacore). The experiment can be described thus: SPR (Biacore), antigen CD3.

For the molecule EGFR 528 (phb 704) (antibody), the MFI with EGFR (human) [1] was found to be 586; in the experiment with EGFR (human) [2], 26.8; with EGFR (human) [3] it was 388.

B1: huOKT3 IgG1-aGlyco (antibody, V domains shown)
VH: QVQLVQSGGGVVQPGRSLRLSCKASGYTFTRYTMHWVRQAPGKGLEWIGYINPSRGYTNYNQKFKDRFTISRDNSKNTAFLQMDSLRPEDTGVYFCARYYDDHYCLDYWGQGTPVTVSS
VL: DIQMTQSPSSLSASVGDRVTITCSASSSVSYMNWYQQTPGKAPKRWIYDTSKLASGVPSRFSGSGSGTDYTFTISSLQPEDIATYYCQQWSSNPFTFGQGTKLQITR
For the molecule B1, in the experiment with antigen CD3 (Biacore), the Kd is 64.6 nM, the off-rate (koff) was determined as 0.109 s⁻¹ and the kon is 1.68e+06 M⁻¹ s⁻¹.

Values taken from patent US20170210819A1.
